In patent publication US20140056902A1 (Kyowa Kirin, published 2014):

T1: human mature dimer BMP9 recombinant protein (manufactured by R&D systems, Cat#3209-BP) (human, UniProt Q9UK05 320-429)
T1 construct: Bought protein; also called human BMP9; human BMP9 recombinant protein (manufactured by R&D systems)
T1 sequence: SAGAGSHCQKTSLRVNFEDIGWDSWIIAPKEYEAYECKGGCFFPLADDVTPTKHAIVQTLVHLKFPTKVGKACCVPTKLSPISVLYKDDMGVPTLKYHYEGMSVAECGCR


target: T1, human mature dimer BMP9 recombinant …; assay: SPR (Biacore T100), antibody captured on anti-human IgG, human BMP9 (R&D 3209-BP) as analyte, 5 concentrations from 1 nM
Protocol: For the purpose of comparing binding activity to human BMP9 between c10D5-2-3 antibody and 22 types of 10D5-2-3 antibody-humanized antibodies obtained in Example 22-7, binding activity to human BMP9 recombinant protein (manufactured by R&D systems) was measured by surface plasmon resonance (SPR) using a BiacoreT100 instrument (manufactured by GE Healthcare bioscience).
Anti-human IgG antibody was immobilized onto a CM5 sensor chip (manufactured by GE Healthcare bioscience) using a Human Antibody Capture Kit (manufactured by GE Healthcare bioscience) in accordance with the accompanying protocol. 0.4 μg/mL of c10D5-2-3 antibody or each humanized antibody was applied to the flow cell onto which anti-human IgG antibody was immobilized, at a flow rate of 10 μL/min for 2 minutes.
Subsequently, human BMP9 recombinant protein (manufactured by R&D systems, Cat#3209-BP) was subjected to 2-fold serial dilution starting from […] to give 5 concentrations, and applied at a flow rate of 10 μL/min, and association was monitored over 3 minutes and dissociation over 3 minutes at a flow of 10 μL/min. The sensorgram thus obtained was analyzed by BiaEvaluation Software (manufactured by GE Healthcare bioscience) to calculate the rate constant of each antibody.

Kd [pM] | koff [s⁻¹] | kon [M⁻¹ s⁻¹] | Binder
11.6 | 0.000596 | 5.12e+07 | 10D5-2-3 antibody-humanized antibody HV3LV2 (antibody, V domains shown, Expressed from pKANTEX93) VH: EVQLVESGGGLVQPGGSLRLSCAASGFTFSNYWMNWVRQAPGKGLEWVAHIRLKSDNYATHYAESVRGRFTISRDDSKNSLYLQMNSLKTEDTAVYYCTGGSNYVFAFWGQGTLVTVSS VL: DIVMTQSPDSLAVSLGERATINCRASESVDNYGISFMNWFQQKPGQPPKLLIYAASNQGSGVPDRFSGSGSGTDFTLTISSLQAEDVAVYFCQQSKEVPWTFGQGTKLEIK
10.1 | 0.000556 | 5.5e+07 | 10D5-2-3 antibody-humanized antibody HV4bLV3 (antibody, V domains shown, Expressed from pKANTEX93) VH: EVQLVESGGGLVQPGGSLRLSCAASGFTFSNYWMNWVRQAPGKGLEWVAHIRLKSDNYATHYAESVRGRFTISRDDSKNSLYLQMNSLKTEDTAIYYCTGGSNYVFAFWGQGTLVTVSS VL: DIVMTQSPDSLAVSLGERATINCRASESVDNYGISFMNWFQQKPGQPPKLLIYAASNQGSGVPDRFSGSGSGTDFTLTISPLQAEDVAVYFCQQSKEVPWTFGQGTKLEIK
3.89 | 0.000347 | 8.91e+07 | 10D5-2-3 antibody-humanized antibody HV9LV2 (antibody, V domains shown, Expressed from pKANTEX93) VH: EVQLVESRGGLVQPGGSMRLSCAASGFTFSNYWMNWVRQAPGKGLEWVAHIRLKSDNYATHYAESVRGRFTISRDDSKSSVYLQMNSLKTEDTGIYYCTGGSNYVFAFWGQGTLVTVSS VL: DIVMTQSPDSLAVSLGERATINCRASESVDNYGISFMNWFQQKPGQPPKLLIYAASNQGSGVPDRFSGSGSGTDFTLTISSLQAEDVAVYFCQQSKEVPWTFGQGTKLEIK
10.9 | 0.000588 | 5.39e+07 | 10D5-2-3 antibody-humanized antibody HV4bLV2 (antibody, V domains shown, Expressed from pKANTEX93) VH: EVQLVESGGGLVQPGGSLRLSCAASGFTFSNYWMNWVRQAPGKGLEWVAHIRLKSDNYATHYAESVRGRFTISRDDSKNSLYLQMNSLKTEDTAIYYCTGGSNYVFAFWGQGTLVTVSS VL: DIVMTQSPDSLAVSLGERATINCRASESVDNYGISFMNWFQQKPGQPPKLLIYAASNQGSGVPDRFSGSGSGTDFTLTISSLQAEDVAVYFCQQSKEVPWTFGQGTKLEIK
11.9 | 0.000531 | 4.46e+07 | 10D5-2-3 antibody-humanized antibody HV4bLV6 (antibody, V domains shown, Expressed from pKANTEX93) VH: EVQLVESGGGLVQPGGSLRLSCAASGFTFSNYWMNWVRQAPGKGLEWVAHIRLKSDNYATHYAESVRGRFTISRDDSKNSLYLQMNSLKTEDTAIYYCTGGSNYVFAFWGQGTLVTVSS VL: not shown
11.4 | 0.00172 | 1.51e+08 | 10D5-2-3 antibody-humanized antibody HV3LV0 (antibody, V domains shown, Expressed from pKANTEX93) VH: EVQLVESGGGLVQPGGSLRLSCAASGFTFSNYWMNWVRQAPGKGLEWVAHIRLKSDNYATHYAESVRGRFTISRDDSKNSLYLQMNSLKTEDTAVYYCTGGSNYVFAFWGQGTLVTVSS VL: DIVMTQSPDSLAVSLGERATINCRASESVDNYGISFMNWYQQKPGQPPKLLIYAASNQGSGVPDRFSGSGSGTDFTLTISSLQAEDVAVYYCQQSKEVPWTFGQGTKLEIK
9.69 | 0.00142 | 1.47e+08 | 10D5-2-3 antibody-humanized antibody HV7aLV0 (antibody, V domains shown, Expressed from pKANTEX93) VH: EVQLVESRGGLVQPGGSMRLSCAASGFTFSNYWMNWVRQAPGKGLEWVAHIRLKSDNYATHYAESVRGRFTISRDDSKSSLYLQMNSLKTEDTGVYYCTGGSNYVFAFWGQGTLVTVSS VL: DIVMTQSPDSLAVSLGERATINCRASESVDNYGISFMNWYQQKPGQPPKLLIYAASNQGSGVPDRFSGSGSGTDFTLTISSLQAEDVAVYYCQQSKEVPWTFGQGTKLEIK
9.24 | 0.00145 | 1.57e+08 | 10D5-2-3 antibody-humanized antibody HV4aLV0 (antibody, V domains shown, Expressed from pKANTEX93) VH: EVQLVESRGGLVQPGGSMRLSCAASGFTFSNYWMNWVRQAPGKGLEWVGHIRLKSDNYATHYAESVRGRFTISRDDSKSSLYLQMNSLKTEDTAVYYCAGGSNYVFAFWGQGTLVTVSS VL: DIVMTQSPDSLAVSLGERATINCRASESVDNYGISFMNWYQQKPGQPPKLLIYAASNQGSGVPDRFSGSGSGTDFTLTISSLQAEDVAVYYCQQSKEVPWTFGQGTKLEIK
6.45 | 0.000859 | 1.33e+08 | 10D5-2-3 antibody-humanized antibody HV9LV0 (antibody, V domains shown, Expressed from pKANTEX93) VH: EVQLVESRGGLVQPGGSMRLSCAASGFTFSNYWMNWVRQAPGKGLEWVAHIRLKSDNYATHYAESVRGRFTISRDDSKSSVYLQMNSLKTEDTGIYYCTGGSNYVFAFWGQGTLVTVSS VL: DIVMTQSPDSLAVSLGERATINCRASESVDNYGISFMNWYQQKPGQPPKLLIYAASNQGSGVPDRFSGSGSGTDFTLTISSLQAEDVAVYYCQQSKEVPWTFGQGTKLEIK
11.9 | 0.000555 | 4.67e+07 | 10D5-2-3 antibody-humanized antibody HV3LV6 (antibody, V domains shown, Expressed from pKANTEX93) VH: EVQLVESGGGLVQPGGSLRLSCAASGFTFSNYWMNWVRQAPGKGLEWVAHIRLKSDNYATHYAESVRGRFTISRDDSKNSLYLQMNSLKTEDTAVYYCTGGSNYVFAFWGQGTLVTVSS VL: not shown
3.52 | 0.000279 | 7.91e+07 | 10D5-2-3 antibody-humanized antibody HV9LV3 (antibody, V domains shown, Expressed from pKANTEX93) VH: EVQLVESRGGLVQPGGSMRLSCAASGFTFSNYWMNWVRQAPGKGLEWVAHIRLKSDNYATHYAESVRGRFTISRDDSKSSVYLQMNSLKTEDTGIYYCTGGSNYVFAFWGQGTLVTVSS VL: DIVMTQSPDSLAVSLGERATINCRASESVDNYGISFMNWFQQKPGQPPKLLIYAASNQGSGVPDRFSGSGSGTDFTLTISPLQAEDVAVYFCQQSKEVPWTFGQGTKLEIK
4.91 | 0.000307 | 6.25e+07 | 10D5-2-3 antibody-humanized antibody HV7bLV2 (antibody, V domains shown, Expressed from pKANTEX93) VH: EVQLVESRGGLVQPGGSMRLSCAASGFTFSNYWMNWVRQAPGKGLEWVAHIRLKSDNYATHYAESVRGRFTISRDDSKNSVYLQMNSLKTEDTGVYYCTGGSNYVFAFWGQGTLVTVSS VL: DIVMTQSPDSLAVSLGERATINCRASESVDNYGISFMNWFQQKPGQPPKLLIYAASNQGSGVPDRFSGSGSGTDFTLTISSLQAEDVAVYFCQQSKEVPWTFGQGTKLEIK
11.4 | 0.00164 | 1.44e+08 | 10D5-2-3 antibody-humanized antibody HV4bLV0 (antibody, V domains shown, Expressed from pKANTEX93) VH: EVQLVESGGGLVQPGGSLRLSCAASGFTFSNYWMNWVRQAPGKGLEWVAHIRLKSDNYATHYAESVRGRFTISRDDSKNSLYLQMNSLKTEDTAIYYCTGGSNYVFAFWGQGTLVTVSS VL: DIVMTQSPDSLAVSLGERATINCRASESVDNYGISFMNWYQQKPGQPPKLLIYAASNQGSGVPDRFSGSGSGTDFTLTISSLQAEDVAVYYCQQSKEVPWTFGQGTKLEIK
9.49 | 0.000516 | 5.43e+07 | 10D5-2-3 antibody-humanized antibody HV3LV3 (antibody, V domains shown, Expressed from pKANTEX93) VH: EVQLVESGGGLVQPGGSLRLSCAASGFTFSNYWMNWVRQAPGKGLEWVAHIRLKSDNYATHYAESVRGRFTISRDDSKNSLYLQMNSLKTEDTAVYYCTGGSNYVFAFWGQGTLVTVSS VL: DIVMTQSPDSLAVSLGERATINCRASESVDNYGISFMNWFQQKPGQPPKLLIYAASNQGSGVPDRFSGSGSGTDFTLTISPLQAEDVAVYFCQQSKEVPWTFGQGTKLEIK
9.57 | 0.000477 | 4.98e+07 | 10D5-2-3 antibody-humanized antibody HV7aLV2 (antibody, V domains shown, Expressed from pKANTEX93) VH: EVQLVESRGGLVQPGGSMRLSCAASGFTFSNYWMNWVRQAPGKGLEWVAHIRLKSDNYATHYAESVRGRFTISRDDSKSSLYLQMNSLKTEDTGVYYCTGGSNYVFAFWGQGTLVTVSS VL: DIVMTQSPDSLAVSLGERATINCRASESVDNYGISFMNWFQQKPGQPPKLLIYAASNQGSGVPDRFSGSGSGTDFTLTISSLQAEDVAVYFCQQSKEVPWTFGQGTKLEIK
